According to the DeepSol protein solubility set:

Assay: soluble on expression in E. coli; label from the status in PepcDB or PDB records

Sequence: MGSDKIHHHHHHMKSTIYKALIGATLIIGLSSCVNNWLDVEPGDQVEADEAVTTSADLSSVRAGMYQIIKGTSDFKDYYAARMFYYGEVRGEDMQTEKSGSRSQLCYDMTYSTADNAPSIWQTPYIVIGRANRIIEAAESGKLTDKEEAADIIAQYAAEAKVARAMAHFDLVRVYGKTYTAPDAPNSLGIPVVTTVLGSDSKLIRNTVSEVYTQVIKDLNEAINSKALSESSTPGYINLWAAKALLSRVYLTQGDNQKSLDVAEDIIKNSPYKLWKNEEYVGAWSKISGVHSNEMLFEIAITGSTDWTDREGIAYLYNEDGYADIIATKKFLDLLNEDPNDVRLGVFLAPTTKDFKKLYGTNTVFLNKYPADGLSDLRYNNVPLVRLSEVYLNAAEAAAKLGNQNDKAVEYLDAIVKRANPNKTVKGTTVTVDRVLLERRKELIGEGHRFFDAMRNNETVIRYTSKEDQGWQQALKEEARSFNRDFYKTLLPIPQDEIDANPSMKDQQNTGY
- soluble on expression in E. coli: not soluble

Sequence: MKEVKVGIGDYAVGKGNGIISTYGLGSCVGITLYDRVTKVGGLLHALLPEAARYGHRGNPAKYVDTGLQLLLKEVIKLGASKFRLEAKLFGGAQMFDNIRSEELKIGEKNVQVAKRELRKLGIRLVAEDTGGKGGRTIYLDLSTGKVRMRKVTEGKVIEKVY
- soluble on expression in E. coli: soluble

Sequence: MMKILPHVTNETAPLRTVVLGLPDSTGGAPALADTYDAKSYESVLRGTYPSDEDIKIEMDAVLDVLVRHGIEVLRPEPIANYNQIFARDVAFAIDDKLFVSNLIADRARESEAFSPIWDCVGESHLVRLSEDIHAEGGDILLYDDILFIGTYLQKDYPSFKTARTNARAVDFFREFFPHKTIIPIELIKHDTDPMRSVLHLDCAFQPVGRSRAIVYRQGFLHSESFGLITEIFGGRDNLFEITPEEAYMMNTNIFSISPDTVISEQNFVRLNNHLREAWGMTVEEVPYAEISKQGGLLRCSTMPLVRE
- soluble on expression in E. coli: not soluble

Sequence: MDILFRIRGGFDLAFQLAPPKEMFIKNALRQVLSDLTTKLSSDALVLRVCNSSVYLWPNSDANTGELTDSSACKNVVRFIQFDQEEDTKRKFIKKKDKKLTDTQQIVNIDLMLEISTPLGAVTPILERENEEHHYINMSLPIDAVVSVAPEESWGKVRKLLVDAILRQLVDVEKCILRYMKGTSIVVPEPLHFQLPGKKNLVTVLYPSGIPDDQLQAYRKELHDLFNLPHDRPYFKRINAYHFPDELYKDGYIRNPHTYLSPPNIEGSMICVVQGTYAYHHYMQDRIDDNGWGCAYRSLQTICSWFRHQGYTERSIPTHREIQQALVDAGDKPATFVGSRQWIGSIEVQMVLNQLIGVTSKILFVNQGSEMASQGRELANHFQNVGTPVMVGGGVLAHTILGVAWNETTGQIKFLILDPHYTGAEDLQVMLEKGWCGWKSPDFWNKDAYYNLCLPQRPNAL
- soluble on expression in E. coli: soluble

Sequence: MGSDKIHHHHHHAEDDRMTPLSADSGDTADELIPIHISLTGDNDYHSSSFNDASTRSHSPLIAEWVGVKAFSPTRTGEQPDYEGPRIASMELTEDTLPRVSTRATVPAGVYFRLIVFRKSGNNYVFQSVADYASNGTGTPVLERGKLLTRSGTIRVVGYSFNTTADLGDMPSTYAYNSSTVSIPDMSKDFMTFDSGDITNVNSLSHNLPVSFSQKLCKLTITISPTGFPSNTITNCTGVYVKQGGNSTSWKIGPSTNVVAANTNNTAAFSPNTTLNTTIRMVPFAGARTITVHFNTLTVGGRTVNNNTEITSTQSVQLKEGKSYTLKIQFKKGPGINVPASNINLTQNGCTENDKTILSKLRWAEGNLNSQSNYNLTWASSTTDYGYYYIWKNVYVSSGYTGYGAVDPCTRLDESIYGSGWRTPTRSEFISLSRCSNKQLVKYNGIQGMWFMNSSTGLFLPAAGYRDGDKGSGTTATAYTNGTGSYYWSSDLNGNSAYGLYILKNDVFVDANGNRKSGVSVRCVHNL
- soluble on expression in E. coli: not soluble

Sequence: MLDRIRGQLEQLSSAERKVADLVLEQPYTVIQAAVAEIARNAGVSQPTVIRFCRTVGCSGLPDFKLKLAGSLVTGVPYVHSSVRPEDPTSEIVAKVFDNTVSALLKCRNDVN
- soluble on expression in E. coli: not soluble

Sequence: MQAVNTTSGGAVGVDRKQYMFSMLSSQEVDQMYAQSYQKTLGEAKSAGVLDTSSADARRVKAIAQRLIPQTAAFRPDATGWNWEVNVVKSDELNANCGPGGKIIFYTGLIDKLKLTDDEIAAVMGHEIAHALREHGREAMSKAYGVQVASQIGALAGLGQESLQLANTGVDYLMTLPNSRANENEADLIGLELAARAGYNPEAAITLWQKMGRASGGASQPEFTSTHPSDSSRMANLQAAIPKVMPLYQQARRGKLEHHHHHH
- soluble on expression in E. coli: soluble

Sequence: MRFVYLSDLDNNQKNFYKEADRQSALLSMLIEKDIDFIGAGANFYQVGSKKDWSQFPLFADSLLHRSNSLISLQWMEKVEEKDIDEHFQQIHKNYPLAKLYTVPKDQPKTYGYVMKNHEPIYIATDIYPRDEKNTPLIGFYSSRERFNLVVEEFLTTGRPSVSDKIRLLQDSLDQSAQKTGMLVYHPVFTSDKTALKGVMVGVVRITSYFDRLVNSTSLGEELVVRIIDTGFDAGDDPIMYQSSTWNNFKGVDYTTSVKIENRLWKIEYKSDNKLNEYQRLTLEHHHHHH
- soluble on expression in E. coli: not soluble

Sequence: MSLAKELLIKNACVYDPLNGIEGEVMDIGVKDGKIVDPSEVDESKAKVIDAEGRLTMAGGVDIHAHVAGPKVNVGRIFRPEDSRRLQVAIKKLGTRSGTGFSVPSTTITGYLYAQMGYTTVMEAATPPLLTRHTHEEIRDTPILDEGAYTLMANNWILYEYIKEGELEKAAAYAAWLLRATKGFVIKMVNPGGTEAWGWGENVHSLDDPVPYFEITPAEIYQNYVKINEMLGLPHSIHIHPNLLGEPGNYEITTDSWDVIKKTGVEPNPEIGEREQVVHNTHVQFHSYGGDSWPTFESKAEEVAKYLNKNDHVTVDLGAVTLDETTTMTADGPLEWELQELTGFKWANYDVELETGSGVVPFIYSPKNPVHSVQWAIGLEIALLTENPWQVVISTDHPNAGPFIRYPRIIAWLMSEPYREEWIENVHPWVGQRAAIATIDREYTWTDITITTRAAPAKMLGLSDRIGHLGEGAYAHIAIYDIKPDEVDPSRDYEEVEKAMEQAWLVVKDGEIVVQEGVVVNEPVGRTYWVDVKVPEDLLEEVKKDLETKFRRYYSVNLGNYQVQDVYIPKEERIVIDARDRLSEGHHHHHH
- soluble on expression in E. coli: soluble

Sequence: VTLLEQNPRWRLVPRGQAVNLRCILKNSQYPWMSWYQQDLQKQLQWLFTLRSPGDKEVKSLPGADYLATRVTDTELRLQVANMSQGRTLYCTCSAAPDWGASAETLYFGSGTRLTVL
- soluble on expression in E. coli: soluble

Sequence: MGSDKIHHHHHHMVIYMIGGSPCSGKSTIASLLARQYQLLHIKLDDLVDEMMSQASADSQPICLLRQDRNPEQIWMRNPKEMADEEWRFYEEIFPYVKSYLIKKDRPLLVEGAGLLPHLVKELEWPASSYLCLTPTADFQKKHYRQREWVSYVLEGTTNPEQAFENWMQRDILFAQMVRKEAMRLGYSSLMTDGSQSEKQTAEEIARLLKLYNINEIDIKGENT
- soluble on expression in E. coli: not soluble

Sequence: MGMFERDTEIYLDRDALREDYQPENLVGRDTELNRYRAALQPVINGEQPNNIFLYGKTGVGKTAGTRYLIDHLEEDAAKYEDIDLTVKMLNCDGLSSSYQIATRLVNEFRDETSQISTTGYPRATVYDMLWTELDSCGGTIYIVLDEVDHIEDDSILYQLPRARANDNLSSAKIGIIGISNDFSFRDDLSPKVKSSLCEEEIQFPA
- soluble on expression in E. coli: not soluble

Sequence: LKIKMPDDIFVKKELILKDVIKGQIGYMYLPSMSSKNGSINNDLKIIGDYINTLEKHKALIIDIRGNLGGSDRYWQGIVSKLIKNDVKINGYRIYRNNNEIVKKYTNARNIKLNPVENLPASVKENAPKEIIKDFNDFEDTSYTIKSTDDSKFKGNIYLLVDRKIYSSSESFAMFCKENKFATLVGETTGGDGGCIDPVLFNLKNSGLIVRMASCMYLNKNGICDEEFKTIPEFKVKDCKRTADFKDDNCIRKALELENINY
- soluble on expression in E. coli: not soluble

Sequence: MGSDKIHHHHHHCKDDDTLLRGSGITEQSWSTNQTYFASAEQTLTFTFTTLSSWTAQNSSTALLSLDNTAGNSGENTIKVTVHKSSQEQGTITIKVNGYSSASNIKIQLSDDDVQGYEINYSVDQYLREKYLWNDDYKLLTPNFRQAYDEFLRNTLLSMTTNTLDKKRNSNGTYSLFSFIQKLDPDLQTSRSAKEKKTLEYNYGFVNFIAVGNRNNSNYGLVIQGVHKGSSADKEGLKRGMEITEIDNQRITTTNVQACYSKLIKPSSPTSIKVKDKDGKVYTINSGPIYANPIIHHQVNEKIGYLVYSAFESGFDQELFDVFKEFKSQNITELILDLRYNGGGDVTSANLISSCIAGDLCIDKTFASYRYNDERMKVLGNQRPIQKFAYSQYDNLSTSLSAGGLNLRKIYCLVTDDSASASELVINALRGIDIEVILIGTTTHGKNVGMEGVELTAGTDKYLLFPITFQAYNAKGFGDFENGFTPDYEINENKPNGEYFEGYGDFGAESDPLYAKAISLISGNEVTTPTRAVNQAKEQMLVIATPRLNRIGMIK
- soluble on expression in E. coli: not soluble

Sequence: MSLSISEKPLSELLRPKDFEDFVGQDHIFGNKGILRRTLKTGNMFSSILYGPPGSGKTSVFSLLKRYFNGEVVYLSSTVHGVSEIKNVLKRGEQLRKYGKKLLLFLDEIHRLNKNQQMVLVSHVERGDIVLVATTTENPSFVIVPALLSRCRILYFKKLSDEDLMKILKKATEVLNIDLEESVEKAIVRHSEGDARKLLNTLEIVHQAFKNKRVTLEDLETLLGNVSGYTKESHYDFASAFIKSMRGSDPNAAVYYLVKMIEMGEDPRFIARRMIIFASEDVGLADPNALHIAVSTSIAVEHVGLPECLMNLVECAVYLSLAPKSNSVYLAMKEGHHHHHH
- soluble on expression in E. coli: not soluble

Sequence: MLMKVAEFERLFRQAAGLDVDKNDLKRVSDFLRNKLYDLLAVAERNAKYNGRDLIFEPDLPIAKGLQETLQEFRRMDTALELKPVLDALAALPPLDLEVAEDVRNLLPELAGALVVAYARVLKELDPALKNPQTEHHERAERVFNLLL
- soluble on expression in E. coli: soluble

Sequence: MSLNTGHASLAQWGMSCLQWQPEWSVLDIGCGGGANLLQILQRCPQGKAYGIDISPESVTFARKKNKKYLGTRCFIEQGGVHRLPYPDYAFDAVTAFETVYFWGNLQHAFTEVARVLKPGGSFLICCEISDPANKAWTGLVEGMEIHSCDELKAILSKSGFTDTAIFRTKKEELCLVSHRQTVRLEGHHHHHH
- soluble on expression in E. coli: soluble

Sequence: MGSDKIHHHHHHMTEQNRDLVLVTGASGFVGSSVARIAQQKGFKVRVLVRATSPRQNVESLDAEIVVGDMRDEASMRNALRGVRYLLHVAADYRLWAPDPSEIERSNLEGTEATMRAALKEGVERIVYTSSVATLKVTSSGQSADETSPLKADQAIGVYKRSKVLAERAVERMIAEDNLPAVIVNPSTPIGPRDVKPTPTGRIIVEAALGKIPAFVDTGLNLVHVDDVAAGHFLALERGKIGERYILGGENLPLQQMLADIAALTGRKAPTLSLPRWPLYPLAMGAEAIAKITKREPFVTVDGLKMSKNKMYFTSAKAERELGYRARPYREGLGDALEWFRQAGYLKA
- soluble on expression in E. coli: not soluble

Sequence: MAQMTMIQAITDALRVEMKNDPNVLVFGEDVGVNGGVFRATEGLQAEFGEDRVMDTPLAESGIGGLAVGLALEGFRPVPEIQFFGFVYEVMDSISGQLARMRYRSGGRWTAPVTVRSPFGGGVHTPELHADSLEGLVAQQPGLKVVIPSTPYDAKGLLISAIRDNDPVIYLEHMKLYRSFRQDVPEGEYTIDLGKADIKREGTDVSVIAYGAMVHAALKAAEELEKEGISLEVVDLRTVQPLDIETIIASVEKTGRVVVVQEAQKQAGIAANVVAEINDRAILNLEAPVVRVAAADTVFPFSQAESVWLPNHKDIVEAVNKVMNF
- soluble on expression in E. coli: not soluble
